*1 amine or outer side, *2 acyl side, *3 side chain or, on linkers, in order; H or OH if unused. Where no end group is shown, it is not given here. Side-chain parts run from the residue outwards. [ ]: non-standard residue; d: D form. The star is where a group is joined. phenyl lactic acid = phenyl lactic acid at the N-terminus; C16 diacid = O=C(O)CCCCCCCCCCCCCCC(=O)*; γGlu = O=C(O)[C@H](CCC(=O)[*:2])N[*:1]; Nle = CCCC[C@H](N)C(=O)O; Aib = CC(C)(N)C(=O)O
target: T1, human GIP receptor (human, UniProt P48546 22-466); test: cell-based or functional assay
T1 sequence (looked up): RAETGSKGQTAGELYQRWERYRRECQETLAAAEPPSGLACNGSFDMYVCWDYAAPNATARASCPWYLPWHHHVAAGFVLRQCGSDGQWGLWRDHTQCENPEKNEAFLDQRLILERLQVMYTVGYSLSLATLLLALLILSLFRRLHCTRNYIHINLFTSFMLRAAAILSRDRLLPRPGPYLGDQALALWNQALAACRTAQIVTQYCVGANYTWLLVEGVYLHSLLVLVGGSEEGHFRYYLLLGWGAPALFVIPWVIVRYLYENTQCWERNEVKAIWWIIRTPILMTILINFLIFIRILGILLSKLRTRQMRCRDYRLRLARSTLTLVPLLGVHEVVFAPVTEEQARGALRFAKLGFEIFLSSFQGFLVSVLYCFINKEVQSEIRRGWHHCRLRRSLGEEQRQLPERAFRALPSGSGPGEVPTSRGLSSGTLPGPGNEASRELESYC

| Binder | cAMP agonism % Emax [%] | cAMP antagonism [nM] | cAMP antagonism % inhib [%] | cAMP antagonism pIC50 |
| --- | --- | --- | --- | --- |
| EGTFISTYK([γGlu-C16 diacid])IALDKIHQQDFVEWLLAQKPSSGAPPPS-OH [AT647] | 0 | 18.8 | 100 | 7.7 |
| EGTFISDYSI[Aib][Nle]DKIK(C16 diacid)QQDFVEWLLAQKPSSGAPPPS-OH [AT667] | 4 | 0.736 | 86 | 9.1 |
| EGTFISDYSIA[Nle]DKIK(C16 diacid)QQDFVEWLLAQKPSSGAPPPS-OH (N-terminus assumed; SMILES CCCC[C@H](NC(=O)[C@H](C)NC(=O)[C@@H](NC(=O)[C@H](CO)NC(=O)[C@H](Cc1ccc(O)cc1)NC(=O)[C@H](CC(=O)O)NC(=O)[C@H](CO)NC(=O)[C@@H](NC(=O)[C@H](Cc1ccccc1)NC(=O)[C@@H](NC(=O)CNC(=O)[C@@H](N)CCC(=O)O)[C@@H](C)O)[C@@H](C)CC)[C@@H](C)CC)C(=O)N[C@@H](CC(=O)O)C(=O)N[C@@H](CCCCN)C(=O)N[C@H](C(=O)N[C@@H](CCCCNC(=O)CCCCCCCCCCCCCCC(=O)O)C(=O)N[C@@H](CCC(N)=O)C(=O)N[C@@H](CCC(N)=O)C(=O)N[C@@H](CC(=O)O)C(=O)N[C@@H](Cc1ccccc1)C(=O)N[C@H](C(=O)N[C@@H](CCC(=O)O)C(=O)N[C@@H](Cc1c[nH]c2ccccc12)C(=O)N[C@@H](CC(C)C)C(=O)N[C@@H](CC(C)C)C(=O)N[C@@H](C)C(=O)N[C@@H](CCC(N)=O)C(=O)N[C@@H](CCCCN)C(=O)N1CCC[C@H]1C(=O)N[C@@H](CO)C(=O)N[C@@H](CO)C(=O)NCC(=O)N[C@@H](C)C(=O)N1CCC[C@H]1C(=O)N1CCC[C@H]1C(=O)N1CCC[C@H]1C(=O)N[C@@H](CO)C(=O)O)C(C)C)[C@@H](C)CC) [AT669] | 0 | 3.35 | 95 | 8.5 |
| EGTFISDYSIALDKIK(C16 diacid)QQDFVEWLLAQKPSSGAPPPS-OH (N-terminus assumed; SMILES CC[C@H](C)[C@H](NC(=O)[C@H](CO)NC(=O)[C@H](Cc1ccc(O)cc1)NC(=O)[C@H](CC(=O)O)NC(=O)[C@H](CO)NC(=O)[C@@H](NC(=O)[C@H](Cc1ccccc1)NC(=O)[C@@H](NC(=O)CNC(=O)[C@@H](N)CCC(=O)O)[C@@H](C)O)[C@@H](C)CC)C(=O)N[C@@H](C)C(=O)N[C@@H](CC(C)C)C(=O)N[C@@H](CC(=O)O)C(=O)N[C@@H](CCCCN)C(=O)N[C@H](C(=O)N[C@@H](CCCCNC(=O)CCCCCCCCCCCCCCC(=O)O)C(=O)N[C@@H](CCC(N)=O)C(=O)N[C@@H](CCC(N)=O)C(=O)N[C@@H](CC(=O)O)C(=O)N[C@@H](Cc1ccccc1)C(=O)N[C@H](C(=O)N[C@@H](CCC(=O)O)C(=O)N[C@@H](Cc1c[nH]c2ccccc12)C(=O)N[C@@H](CC(C)C)C(=O)N[C@@H](CC(C)C)C(=O)N[C@@H](C)C(=O)N[C@@H](CCC(N)=O)C(=O)N[C@@H](CCCCN)C(=O)N1CCC[C@H]1C(=O)N[C@@H](CO)C(=O)N[C@@H](CO)C(=O)NCC(=O)N[C@@H](C)C(=O)N1CCC[C@H]1C(=O)N1CCC[C@H]1C(=O)N1CCC[C@H]1C(=O)N[C@@H](CO)C(=O)O)C(C)C)[C@@H](C)CC) [AT668] | 0 | 0.944 | 92 | 9 |
| GETFISDYAIALDKIK(C16 diacid)QQDFVEWLLAQGPSSGAPPPS-OH (N-terminus assumed; SMILES CC[C@H](C)[C@H](NC(=O)[C@H](C)NC(=O)[C@H](Cc1ccc(O)cc1)NC(=O)[C@H](CC(=O)O)NC(=O)[C@H](CO)NC(=O)[C@@H](NC(=O)[C@H](Cc1ccccc1)NC(=O)[C@@H](NC(=O)[C@H](CCC(=O)O)NC(=O)CN)[C@@H](C)O)[C@@H](C)CC)C(=O)N[C@@H](C)C(=O)N[C@@H](CC(C)C)C(=O)N[C@@H](CC(=O)O)C(=O)N[C@@H](CCCCN)C(=O)N[C@H](C(=O)N[C@@H](CCCCNC(=O)CCCCCCCCCCCCCCC(=O)O)C(=O)N[C@@H](CCC(N)=O)C(=O)N[C@@H](CCC(N)=O)C(=O)N[C@@H](CC(=O)O)C(=O)N[C@@H](Cc1ccccc1)C(=O)N[C@H](C(=O)N[C@@H](CCC(=O)O)C(=O)N[C@@H](Cc1c[nH]c2ccccc12)C(=O)N[C@@H](CC(C)C)C(=O)N[C@@H](CC(C)C)C(=O)N[C@@H](C)C(=O)N[C@@H](CCC(N)=O)C(=O)NCC(=O)N1CCC[C@H]1C(=O)N[C@@H](CO)C(=O)N[C@@H](CO)C(=O)NCC(=O)N[C@@H](C)C(=O)N1CCC[C@H]1C(=O)N1CCC[C@H]1C(=O)N1CCC[C@H]1C(=O)N[C@@H](CO)C(=O)O)C(C)C)[C@@H](C)CC) [AT644] | 0 | 17.1 | 93 | 7.8 |
| GETFISTYSIALDKIK(C16 diacid)QQDFVEWLLAQKPSSGAPPPS-OH (N-terminus assumed; SMILES CC[C@H](C)[C@H](NC(=O)[C@H](CO)NC(=O)[C@H](Cc1ccc(O)cc1)NC(=O)[C@@H](NC(=O)[C@H](CO)NC(=O)[C@@H](NC(=O)[C@H](Cc1ccccc1)NC(=O)[C@@H](NC(=O)[C@H](CCC(=O)O)NC(=O)CN)[C@@H](C)O)[C@@H](C)CC)[C@@H](C)O)C(=O)N[C@@H](C)C(=O)N[C@@H](CC(C)C)C(=O)N[C@@H](CC(=O)O)C(=O)N[C@@H](CCCCN)C(=O)N[C@H](C(=O)N[C@@H](CCCCNC(=O)CCCCCCCCCCCCCCC(=O)O)C(=O)N[C@@H](CCC(N)=O)C(=O)N[C@@H](CCC(N)=O)C(=O)N[C@@H](CC(=O)O)C(=O)N[C@@H](Cc1ccccc1)C(=O)N[C@H](C(=O)N[C@@H](CCC(=O)O)C(=O)N[C@@H](Cc1c[nH]c2ccccc12)C(=O)N[C@@H](CC(C)C)C(=O)N[C@@H](CC(C)C)C(=O)N[C@@H](C)C(=O)N[C@@H](CCC(N)=O)C(=O)N[C@@H](CCCCN)C(=O)N1CCC[C@H]1C(=O)N[C@@H](CO)C(=O)N[C@@H](CO)C(=O)NCC(=O)N[C@@H](C)C(=O)N1CCC[C@H]1C(=O)N1CCC[C@H]1C(=O)N1CCC[C@H]1C(=O)N[C@@H](CO)C(=O)O)C(C)C)[C@@H](C)CC) [AT646] | 0 | 10 | 96 | 8 |
| EGTFISDYSIAMDKIK(C16 diacid)QQDFVNWLLAQKPSSGAPPPS-NH2 (N-terminus assumed; SMILES CC[C@H](C)[C@H](NC(=O)[C@H](CO)NC(=O)[C@H](Cc1ccc(O)cc1)NC(=O)[C@H](CC(=O)O)NC(=O)[C@H](CO)NC(=O)[C@@H](NC(=O)[C@H](Cc1ccccc1)NC(=O)[C@@H](NC(=O)CNC(=O)[C@@H](N)CCC(=O)O)[C@@H](C)O)[C@@H](C)CC)C(=O)N[C@@H](C)C(=O)N[C@@H](CCSC)C(=O)N[C@@H](CC(=O)O)C(=O)N[C@@H](CCCCN)C(=O)N[C@H](C(=O)N[C@@H](CCCCNC(=O)CCCCCCCCCCCCCCC(=O)O)C(=O)N[C@@H](CCC(N)=O)C(=O)N[C@@H](CCC(N)=O)C(=O)N[C@@H](CC(=O)O)C(=O)N[C@@H](Cc1ccccc1)C(=O)N[C@H](C(=O)N[C@@H](CC(N)=O)C(=O)N[C@@H](Cc1c[nH]c2ccccc12)C(=O)N[C@@H](CC(C)C)C(=O)N[C@@H](CC(C)C)C(=O)N[C@@H](C)C(=O)N[C@@H](CCC(N)=O)C(=O)N[C@@H](CCCCN)C(=O)N1CCC[C@H]1C(=O)N[C@@H](CO)C(=O)N[C@@H](CO)C(=O)NCC(=O)N[C@@H](C)C(=O)N1CCC[C@H]1C(=O)N1CCC[C@H]1C(=O)N1CCC[C@H]1C(=O)N[C@@H](CO)C(N)=O)C(C)C)[C@@H](C)CC) [AT650] | 0 | 3.69 | 94 | 8.4 |
| {phenyl lactic acid}-PGTFISDYSIAMDKIKQQDFVNWLLAQKPSSGAPPPSK(C16 diacid)-NH2 (not fully specified) [AT652] | 17 | 10.6 | 60 | 8 |
| EGTFISDYSI[Aib]MDKIK(C16 diacid)QQDFVEWLLAQKPSSGAPPPS-OH [AT665] | 0 | 0.15 | 88 | 9.8 |
